T1: Uhrf1 (Np95) SRA domain (mouse, UniProt Q8VDF2 405-613)
T1 sequence: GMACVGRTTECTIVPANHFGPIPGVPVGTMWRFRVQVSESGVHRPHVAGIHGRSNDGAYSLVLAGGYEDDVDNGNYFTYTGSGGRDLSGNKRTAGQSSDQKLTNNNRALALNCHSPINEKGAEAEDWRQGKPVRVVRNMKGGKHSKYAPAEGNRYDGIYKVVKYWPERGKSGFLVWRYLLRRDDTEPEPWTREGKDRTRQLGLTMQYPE

B1: CG/5mCG (hemi-methylated 12-bp) (dsDNA)
DNA 1: CTACCGGATTGC
DNA 2: GCAATCCGGTAG
modifications: 5mC at position 7 of strand 2 (GCAATCXGGTAG, X = 5mC)

Legend:
[1] = system: His-GST-MBD1 (1-75); assay: pull-down; conditions: 2 pg fragment mixed with 10 ug genomic DNA, 4 C overnight, q-PCR read-out, 5mC, PCR product, methylation procedure not detailed, EMSA/competition: 25 mM HEPES-NaOH pH 7.4, 0.1 M NaCl, 0.1 mM TCEP, 250 ng poly(dI-dC)(dI-dC), 30 min, 7.5% native PAGE in 1x TBE
[2] = target: T1, Uhrf1 (Np95) SRA domain; assay: EMSA; 0-3 uM SRA, 1 uM DNA, 250 ng poly(dI-dC); EMSA/competition: 25 mM HEPES-NaOH pH 7.4, 0.1 M NaCl, 0.1 mM TCEP, 250 ng poly(dI-dC)(dI-dC), 4 C, 30 min; 7.5% native PAGE in 1x TBE; conditions: protein: recombinant; blunt

Molecule	binding signal [1] [% recovered]	binding result [2]
methylated histone H3 DNA fragment	90	–
B1	–	binds
